Measurements from PMC10501992, “How Pol α-primase is targeted to replisomes to prime eukaryotic DNA replication” (Molecular Cell, 2023).

What was measured:
[1] = molecular target: T1, budding yeast CMG (Cdc45-Mcm2-7-GINS) replicative helicase (S. cerevisiae, UniProt Q08032 1-650; P29469 1-868; P24279 1-971; P30665 1-933; P29496 1-775; P53091 …); assay: cryo-EM structure; budding yeast replisome: 150 nM CMG on fork DNA (39 nt 3′ flap, 60 nt 5′ flap) with 1.5-fold molar excess of Tof1-Csm3, Mrc1 and Pol α-primase; 25 mM HEPES-NaOH pH 7.6, 150 mM NaOAc, 0.5 mM TCEP, 500 μM AMP-PNP, 10 mM Mg(OAc)2, on ice; 10-30% glycerol gradient with glutaraldehyde and BS3 cross-linkers; conditions: both partners purified
T1 construct: Cdc45, S. cerevisiae; Mcm2, S. cerevisiae; Mcm3, S. cerevisiae; Mcm4, S. cerevisiae (named only within Mcm2-7); Mcm5, S. cerevisiae; Mcm6, S. cerevisiae (named only within Mcm2-7); Mcm7, S. cerevisiae (named only within Mcm2-7); Psf1, subunit of GINS, S. cerevisiae; Psf2, subunit of GINS, S. cerevisiae; Sld5, subunit of GINS, S. cerevisiae; source: S. cerevisiae strain yJY197, expressed and …

Tof1 (budding yeast) = molecular target: T2, Tof1 (budding yeast) (S. cerevisiae, UniProt P53840 1-1238); assay: as above; conditions: both partners purified
T2 construct: Tof1, S. cerevisiae; stood in the assay as a subunit of m13; source: subunit of Tof1-Csm3 from S. cerevisiae strain yAE48, purified as described previously
T2 sequence: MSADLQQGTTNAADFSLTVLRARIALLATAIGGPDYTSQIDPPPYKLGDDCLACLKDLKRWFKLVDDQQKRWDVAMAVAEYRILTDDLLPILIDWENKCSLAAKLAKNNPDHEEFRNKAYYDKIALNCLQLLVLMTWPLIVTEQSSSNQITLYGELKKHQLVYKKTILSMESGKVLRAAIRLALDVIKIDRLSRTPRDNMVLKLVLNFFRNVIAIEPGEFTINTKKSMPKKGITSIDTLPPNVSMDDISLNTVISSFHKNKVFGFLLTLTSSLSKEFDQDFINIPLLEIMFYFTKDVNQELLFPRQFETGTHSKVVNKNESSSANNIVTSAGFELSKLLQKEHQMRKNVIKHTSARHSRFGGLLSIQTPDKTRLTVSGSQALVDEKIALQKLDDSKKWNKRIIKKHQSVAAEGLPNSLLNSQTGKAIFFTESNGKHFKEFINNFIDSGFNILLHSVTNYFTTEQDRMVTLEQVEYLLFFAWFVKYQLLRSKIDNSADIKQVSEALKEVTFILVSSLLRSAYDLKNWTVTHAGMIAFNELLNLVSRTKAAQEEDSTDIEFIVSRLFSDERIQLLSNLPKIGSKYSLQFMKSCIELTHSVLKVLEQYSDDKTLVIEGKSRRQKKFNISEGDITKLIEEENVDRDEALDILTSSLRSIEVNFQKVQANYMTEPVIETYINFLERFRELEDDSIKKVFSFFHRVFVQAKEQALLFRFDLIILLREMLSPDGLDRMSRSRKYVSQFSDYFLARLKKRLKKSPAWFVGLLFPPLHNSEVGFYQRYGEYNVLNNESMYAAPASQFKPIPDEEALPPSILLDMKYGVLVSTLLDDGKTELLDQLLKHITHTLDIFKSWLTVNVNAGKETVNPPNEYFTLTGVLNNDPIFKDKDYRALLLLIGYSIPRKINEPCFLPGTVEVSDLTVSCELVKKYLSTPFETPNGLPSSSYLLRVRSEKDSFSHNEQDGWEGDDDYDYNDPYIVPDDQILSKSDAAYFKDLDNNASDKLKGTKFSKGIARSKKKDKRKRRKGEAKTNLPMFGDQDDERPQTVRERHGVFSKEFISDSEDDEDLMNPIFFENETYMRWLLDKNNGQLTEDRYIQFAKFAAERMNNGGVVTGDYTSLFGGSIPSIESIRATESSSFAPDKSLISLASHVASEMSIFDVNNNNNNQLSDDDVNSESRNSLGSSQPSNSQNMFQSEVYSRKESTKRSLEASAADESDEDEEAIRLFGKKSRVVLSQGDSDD

binding result [1]: binds
binding result (Tof1 (budding yeast)): binds
B1: Mrc1 (budding yeast) (natural protein, S. cerevisiae)
chain: MDDALHALSSLTAKKRTTTYKKVAVPILDENDNTNGNGPNDIDNPPELTGNGFLFANATLNRVKNRLEGKKAPEQNHNNGKDRSENSLPTQLISNLYDGGEELEKSEVKDNSYSEKNVSSSFTQTQRIPVSIQQDKVFNVPIHSVNDGKPTQLIKEDGLVNETSQALKTPLTTGRPGATQRIDSSGATSQTQPIKSIEPQSQIITTSSNHSNALSPKIPIIPTELIGTSPLFQSIQNRGPDTQMDVPPQTAHDEDKTQAIGIPQATHQEQKTQIDTVAQTLQDEVPHTLKIREIQSELASEDSKREKARNVEYKKPQKPIPTKKFFSKESFLADFDDSSSNEDDDIKLENAHPKPVQNDDELHENKSVELNLTDETRINEKRVPLLSSYANNLKREIDSSKCITLDLDSDSDEYGDDDMDSIKLSKDESVLPISQLSKATILNLKARLSKQNQKLSQRPNKSKDPKVDHNVLLNTLRKASRKQILDHQKEVIETKGLKLEDMAKEKEIVENLLEQEILRNKRIRQKEKRREKLEENDFQLNAHDSGSDSGSESSGFALSGNEIADYESSGSENDNRRESDSEKEDDEIILKQKKSHHVKHIINESDSDTEVEAKPKEKADESLPKRIAINLGHYGDNIGEDTDKFQETNVLDTQNIEEVMAERNTIENEVKDDVYVNEEADEAIRRQLIDKEKLQLKQKEKEHEAKIKELKKRGVTNFFEMEAEESEDEWHGIGGADGEGSDDYDSDLEKMIDDYSKNNFNPHEIREMLAAENKEMDIKMINKILYDIKNGGFRNKRAKNSLELELSDDDEDDVLQQYRLKRRELMRKRRLEIGDDAKLVKNPKSSAFFESMVEDIIEYKNPFGAEEEYNLDITSTATDLDTQDNSINVGDNTGNNEQKPVDQKNKKVIISEDFVQKSLSFLKSNNYEDFETDKELSRIQHGNDEAIEDLYTLKQNSSIKSFTNSQTDSTTSKTVNTIIDLEKRPEDEDEVENGDTSLVGVFKHPSIIKSFASRTDINDKFKEGNKTVKILKSYKTVGSSKASITYMGKTRKLIAPKRKTEGSHRYHHDHHNKKMKMKTKTKSNKLFESGQDSFDN
notes: Mrc1, S. cerevisiae; several small sections modelled (S339-K323 as printed, D468-Q483, N842-E858); source: S. cerevisiae strain yJY32, expressed and purified as described previously
